Patent publication US20190359687A1 (Bayer, published 2019)

T1: human glycophorin A on human red blood cells (human, UniProt P02724 20-150)
T1 construct: whole, on cells; also called human GPA; huGPA
T1 sequence (looked up): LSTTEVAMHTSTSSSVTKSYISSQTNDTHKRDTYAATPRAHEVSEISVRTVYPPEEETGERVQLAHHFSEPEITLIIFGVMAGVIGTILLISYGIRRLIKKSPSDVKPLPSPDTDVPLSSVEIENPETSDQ

B1: TPP-9424 FVIII-scFv fusion protein (other)
chain: DIQLTQSPSFLSASVGDRVTITCRASSSVRYIYWFQQKPGKAPKLLIYATSFRQSGVPSRFSGSGSGTEYTLTISSLQPEDFATYYCHQRNSFPYTFGQGTKLEIKGGGGSGGGGSGGGGSGGGGSEVQLVQSGAEVKKPGASVKVSCKASGYTFTTYAIHWVRQAPGQGLEWMGYINPSSGYTRYNPKFKGRVTMTRDKSTSTAYMELRSLRSDDTAVYYCWTGTRDYWGQGTTVTVSSGGGSGGGGSGLVPRGSGGGSGGGGSGATRRYYLGAVELSWDYMQSDLGELPVDARFPPRVPKSFPFNTSVVYKKTLFVEFTDHLFNIAKPRPPWMGLLGPTIQAEVYDTVVITLKNMASHPVSLHAVGVSYWKASEGAEYDDQTSQREKEDDKVFPGGSHTYVWQVLKENGPMASDPLCLTYSYLSHVDLVKDLNSGLIGALLVCREGSLAKEKTQTLHKFILLFAVFDEGKSWHSETKNSLMQDRDAASARAWPKMHTVNGYVNRSLPGLIGCHRKSVYWHVIGMGTTPEVHSIFLEGHTFLVRNHRQASLEISPITFLTAQTLLMDLGQFLLFCHISSHQHDGMEAYVKVDSCPEEPQLRMKNNEEAEDYDDDLTDSEMDVVRFDDDNSPSFIQIRSVAKKHPKTWVHYIAAEEEDWDYAPLVLAPDDRSYKSQYLNNGPQRIGRKYKKVRFMAYTDETFKTREAIQHESGILGPLLYGEVGDTLLIIFKNQASRPYNIYPHGITDVRPLYSRRLPKGVKHLKDFPILPGEIFKYKWTVTVEDGPTKSDPRCLTRYYSSFVNMERDLASGLIGPLLICYKESVDQRGNQIMSDKRNVILFSVFDENRSWYLTENIQRFLPNPAGVQLEDPEFQASNIMHSINGYVFDSLQLSVCLHEVAYWYILSIGAQTDFLSVFFSGYTFKHKMVYEDTLTLFPFSGETVFMSMENPGLWILGCHNSDFRNRGMTALLKVSSCDKNTGDYYEDSYEDISAYLLSKNNAIEPRSFSQNDENQSPRSFQKKTRHYFIAAVERLWDYGMSSSPHVLRNRAQSGSVPQFKKVVFQEFTDGSFTQPLYRGELNEHLGLLGPYIRAEVEDNIMVTFRNQASRPYSFYSSLISYEEDQRQGAEPRKNFVKPNETKTYFWKVQHHMAPTKDEFDCKAWAYFSDVDLEKDVHSGLIGPLLVCHTNTLNPAHGRQVTVQEFALFFTIFDETKSWYFTENMERNCRAPCNIQMEDPTFKENYRFHAINGYIMDTLPGLVMAQDQRIRWYLLSMGSNENIHSIHFSGHVFTVRKKEEYKMALYNLYPGVFETVEMLPSKAGIWRVECLIGEHLHAGMSTLFLVYSNKCQTPLGMASGHIRDFQITASGQYGQWAPKLARLHYSGSINAWSTKEPFSWIKVDLLAPMIIHGIKTQGARQKFSSLYISQFIIMYSLDGKKWQTYRGNSTGTLMVFFGNVDSSGIKHNIFNPPIIARYIRLHPTHYSIRSTLRMELMGCDLNSCSMPLGMESKAISDAQITASSYFTNMFATWSPSKARLHLQGRSNAWRPQVNNPKEWLQVDFQKTMKVTGVTTQGVKSLLTSMYVKEFLISSSQDGHQWTLFFQNGKVKVFQGNQDSFTPVVNSLDPPLLTRYLRIHPQSWVHQIALRMEVLGCEAQDLY
notes: also called PPB 7888
B2: B-domain deleted FVIII (other, human, UniProt P00451 20-2351, looked up)
chain: ATRRYYLGAVELSWDYMQSDLGELPVDARFPPRVPKSFPFNTSVVYKKTLFVEFTDHLFNIAKPRPPWMGLLGPTIQAEVYDTVVITLKNMASHPVSLHAVGVSYWKASEGAEYDDQTSQREKEDDKVFPGGSHTYVWQVLKENGPMASDPLCLTYSYLSHVDLVKDLNSGLIGALLVCREGSLAKEKTQTLHKFILLFAVFDEGKSWHSETKNSLMQDRDAASARAWPKMHTVNGYVNRSLPGLIGCHRKSVYWHVIGMGTTPEVHSIFLEGHTFLVRNHRQASLEISPITFLTAQTLLMDLGQFLLFCHISSHQHDGMEAYVKVDSCPEEPQLRMKNNEEAEDYDDDLTDSEMDVVRFDDDNSPSFIQIRSVAKKHPKTWVHYIAAEEEDWDYAPLVLAPDDRSYKSQYLNNGPQRIGRKYKKVRFMAYTDETFKTREAIQHESGILGPLLYGEVGDTLLIIFKNQASRPYNIYPHGITDVRPLYSRRLPKGVKHLKDFPILPGEIFKYKWTVTVEDGPTKSDPRCLTRYYSSFVNMERDLASGLIGPLLICYKESVDQRGNQIMSDKRNVILFSVFDENRSWYLTENIQRFLPNPAGVQLEDPEFQASNIMHSINGYVFDSLQLSVCLHEVAYWYILSIGAQTDFLSVFFSGYTFKHKMVYEDTLTLFPFSGETVFMSMENPGLWILGCHNSDFRNRGMTALLKVSSCDKNTGDYYEDSYEDISAYLLSKNNAIEPRSFSQNPPVLKRHQREITRTTLQSDQEEIDYDDTISVEMKKEDFDIYDEDENQSPRSFQKKTRHYFIAAVERLWDYGMSSSPHVLRNRAQSGSVPQFKKVVFQEFTDGSFTQPLYRGELNEHLGLLGPYIRAEVEDNIMVTFRNQASRPYSFYSSLISYEEDQRQGAEPRKNFVKPNETKTYFWKVQHHMAPTKDEFDCKAWAYFSDVDLEKDVHSGLIGPLLVCHTNTLNPAHGRQVTVQEFALFFTIFDETKSWYFTENMERNCRAPCNIQMEDPTFKENYRFHAINGYIMDTLPGLVMAQDQRIRWYLLSMGSNENIHSIHFSGHVFTVRKKEEYKMALYNLYPGVFETVEMLPSKAGIWRVECLIGEHLHAGMSTLFLVYSNKCQTPLGMASGHIRDFQITASGQYGQWAPKLARLHYSGSINAWSTKEPFSWIKVDLLAPMIIHGIKTQGARQKFSSLYISQFIIMYSLDGKKWQTYRGNSTGTLMVFFGNVDSSGIKHNIFNPPIIARYIRLHPTHYSIRSTLRMELMGCDLNSCSMPLGMESKAISDAQITASSYFTNMFATWSPSKARLHLQGRSNAWRPQVNNPKEWLQVDFQKTMKVTGVTTQGVKSLLTSMYVKEFLISSSQDGHQWTLFFQNGKVKVFQGNQDSFTPVVNSLDPPLLTRYLRIHPQSWVHQIALRMEVLGCEAQDLY
notes: Untargeted control without scFv; also called BDD-FVIII; BDD

How the values were obtained:
[1] = molecular target: T1, human glycophorin A on human red blood …; experiment: partition to human RBC, human HemA plasma, 30 min
Description: (§1) The supernatant containing plasma, platelets and white blood cells was discarded and the red blood cell pellet was resuspended in 10 pellet volumes of PBS (50 mM Phosphate buffer, pH7.4, 150 mM NaCl). The red blood cells were then pelleted by slow speed centrifugation and the red blood cells re-suspended in 10 volumes of PBS. This washing step was repeated 4 more times and the red blood cells finally resuspended in a volume of plasma from Hemophilia patients with less than 1% of normal levels of FVIII (GeorgeKing Bio-Medical, Overland Park, Kans.) to generate a total volume equal to the initial blood volume such that the RBC density was equal to that of normal whole blood. BDD and RBC targeted FVIII molecules were then spiked into RBC suspension in HemA plasma at 1 IU/mL, and incubated at room temperature for 2-3 hours with gentle rotation. […] An additional control was performed in which BDD or RBC targeted FVIII molecules were added at 11U/ml into the same human hemophilia A plasma and incubated for 5 minutes and 180 mins. These samples were used to determine the input FVIII activity in the presence of plasma which was used to calculate the percentage of the molecule that was bound to RBC. All plasma samples were then assayed together for FVIII activity using the Coatest SP assay (DiaPharma, Columbus, Ohio). The assay was performed following the manufacturer's instructions in a 96-well plate format. […] The plate was incubated at 37° C. for 10 minutes with shaking between each reagent addition. […] The amount of FVIII activity in the plasma reflects the amount of unbound FVIII. The FVIII activity of the same molecule spiked in to Hemophilia A plasma alone (no RBC) and incubated for 5 minutes was normalized to 100%.

[2] = molecular target: T1, human glycophorin A on human red blood …; experiment: partition to human RBC, human HemA plasma, 60 min
Description: as §1

[3] = molecular target: T2, Cynomolgus monkey glycophorin A on Cynomolgus monkey red blood cells (Cynomolgus monkey); experiment: partition to Cyno RBC, human HemA plasma, 30 min;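 further: FVIII fusion spiked at 1 IU/mL into RBC suspension at whole-blood density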
T2 construct: whole, on cells; also called Cyno GPA; Cyno RBC

[4] = molecular target: T1, human glycophorin A on human red blood …; experiment: partition to human RBC, human HemA plasma, 15 min
Description: as §1

[5] = molecular target: T1, human glycophorin A on human red blood …; experiment: partition to human RBC, human HemA plasma, 120 min
Description: as §1

[6] = molecular target: T1, human glycophorin A on human red blood …; experiment: partition to human RBC, human HemA plasma, 120 min; remark: listed apart in the source
Description: as §1

[7] = molecular target: T2, Cynomolgus monkey glycophorin A on …; experiment: partition to Cyno RBC, human HemA plasma, 1 min;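 further: FVIII fusion spiked at 1 IU/mL into RBC suspension at whole-blood density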
[8] = molecular target: T2, Cynomolgus monkey glycophorin A on …; experiment: partition to Cyno RBC, human HemA plasma, 15 min;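 further: FVIII fusion spiked at 1 IU/mL into RBC suspension at whole-blood density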
[9] = molecular target: T1, human glycophorin A on human red blood …; experiment: partition to human RBC, human HemA plasma, 5 min
Description: as §1

[10] = molecular target: T2, Cynomolgus monkey glycophorin A on …; experiment: partition to Cyno RBC, human HemA plasma, 5 min;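 further: FVIII fusion spiked at 1 IU/mL into RBC suspension at whole-blood density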
Description: To evaluate partition to cynomolgus monkey or human red blood cells, whole blood was draw from Cynomolgus monkey or normal human volunteers in to anticoagulant with 4% sodium citrate (Sigma, St Louis, Mo.). The red blood cells were purified by layering the whole blood on to ficoll followed by low speed centrifugation. The supernatant containing plasma, platelets and white blood cells was discarded and the red blood cell pellet was resuspended in 10 pellet volumes of PBS (50 mM Phosphate buffer, pH7.4, 150 mM NaCl). The red blood cells were then pelleted by slow speed centrifugation and the red blood cells re-suspended in 10 volumes of PBS. This washing step was repeated 4 more times and the red blood cells finally resuspended in a volume of plasma from Hemophilia patients with less than 1% of normal levels of FVIII (GeorgeKing Bio-Medical, Overland Park, Kans.) to generate a total volume equal to the initial blood volume such that the RBC density was equal to that of normal whole blood. BDD and RBC targeted FVIII molecules were then spiked into RBC suspension in HemA plasma at 1 IU/mL, and incubated at room temperature for 2-3 hours with gentle rotation. […] An additional control was performed in which BDD or RBC targeted FVIII molecules were added at 11U/ml into the same human hemophilia A plasma and incubated for 5 minutes and 180 mins. These samples were used to determine the input FVIII activity in the presence of plasma which was used to calculate the percentage of the molecule that was bound to RBC. All plasma samples were then assayed together for FVIII activity using the Coatest SP assay (DiaPharma, Columbus, Ohio). The assay was performed following the manufacturer's instructions in a 96-well plate format. […] The plate was incubated at 37° C. for 10 minutes with shaking between each reagent addition.

[11] = molecular target: T2, Cynomolgus monkey glycophorin A on …; experiment: partition to Cyno RBC, human HemA plasma, 120 min;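 further: FVIII fusion spiked at 1 IU/mL into RBC suspension at whole-blood density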
[12] = molecular target: T1, human glycophorin A on human red blood …; experiment: partition to human RBC, human HemA plasma, 1 min
Description: as §1

[13] = molecular target: T2, Cynomolgus monkey glycophorin A on …; experiment: partition to Cyno RBC, human HemA plasma, 60 min;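 further: FVIII fusion spiked at 1 IU/mL into RBC suspension at whole-blood density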

Row | Binder | percentage bound to human RBC [1] | percentage bound to human RBC [2] | % bound to Cyno RBC [3] | percentage bound to human RBC [4] | percentage bound to human RBC [5] | percentage bound to human RBC [6] | % bound to Cyno RBC [7] | % bound to Cyno RBC [8] | percentage bound to human RBC [9] | % bound to Cyno RBC [10] | % bound to Cyno RBC [11] | percentage bound to human RBC [12] | % bound to Cyno RBC [13]
1 | B1 | 94.5% | 95.2% | 87.8% | 94.4% | 95.6% | 95.6% | 62.9% | 87.2% | 90.5% | 83% | 89.1% | 76.5% | 89%
2 | B2 | 0% | 2% | – | 4% | 0% | – | – | – | 2% | – | – | 0% | –
